Assay results as given in the DeepSol protein solubility set.

Assay: soluble on expression in E. coli; label from the status in PepcDB or PDB records

| Sequence | soluble on expression in E. coli |
| --- | --- |
| SEDSGKTFSSEEEEANYWKDLAMTYKQRAENTQEELREFQEGSREYEAELETQLQQIETRNRDLLSENNRLRMELETIKEKFEVQHSEGYRQISALEDDLAQTKAIKDQLQKYIRELEQANDDLERAKRATIMSLEDFEQRLNQAIERNAFLESELDEKENLLESVQRLKDEARDLRQELAVQQKQEKPRTPMPSSVEAERTDTAVQATGSVPSTPIAHRGPSSSLNTPGSFRRGLDDSTGGTPLTPAARISALNIVGDLLRKVGALESKLASCRNLVYDQSPNRTGGPASGRSSKNRDGGERRPSSTSVPLGDKGLDTSCRWLSKSTTRSSSSC | soluble |
| MAGYDVVVVGGGHAGLEAAWAAAALGVRVALVTVNPDRIGMMPCNPAVGGPGKSQLVAEVVALGGLMGRAADAAAIHTRVLNRSKGPAVQSLRVQVDRDLYALKAQEILAERPVEVLRGEVAALWVEGGRLLGVRTVDGRTLPAKAVVVAGGTFLSGVVWYGRKSRPAGRQGEPPARFLSQSLKAVGHTLRRFKTGTPPRIRADSVDFGRLEVVPPEVPPGSFTGNPGPHAARLPTWQTRTTERTHRLILENLHLSPLYAGDIQGIGPRYCPSIEDKVVRFADKESHLLFVEPDGLSTTEVYLQGFSSSLPPELQEEMVRSLPGFERAVIQRYAYAVEYDSLDPTELTRGLQSRFLPGLFSAGQVNGTSGYEEAAAQGLLAGLNAARFALGLPEVHLPRESGYIGVLVDDLVGRGTDEPYRMMTSRVELRLLCRADNADERLTPLAVAWGLRPREDLERVEAKYRRVAAELRRLEALRVEGVSGLQWLRRPENTYRALAERFPPPEPLSPEEAYQVEVRAKYAGYIERQERLREKMRDLEAFRIPEGMDFPKVPGLSREAAEKLSRHRPKSLAEAARIPGVRDSDLTALAVHLRRGA | not soluble |
| MLKKILLSLVVFYQRFISPLTPPTCRFYPTCSQYTREAIEYHGALKGLYLGVRRILKCHPLHKGGFDPVPLKKDKNSKTTHHHLEHHHHHH | not soluble |
| MKYWLYTSLFLALIFSFRSYANSDIWILIDTLEQRLSVMRGDKAQLAFNNIAIGRYGASSSRMKGDNQTPLGSFQISWIKQHHRYYRFFGVDFPNQEAADLALAEKRISRQAWLSITKAIESSRLPPQDTPLGGYIGIHGIGRGDRTVHARFNWTNGCVALTNAQIDELSSWIKIGTKVVIR | not soluble |
| MMAFAPPKNTDGPKMQTKMSTWTPLNHQLLNDRVFEERRALLGKWFDKWTDSQRRRILTGLLERCSLSQQKFCCRKLQEKIPAEALDFTTKLPRVLSLYIFSFLDPRSLCRCAQVCWHWKNLAELDQLWMLKCLRFNWYINFSPTPFEQGIWKKHYIQMVKELHITKPKTPPKDGFVIADVQLVTSNSPEEKQSPLSAFRSSSSLRKKNNSGEKALPPWRSSDKHPTDIIRFNYLDNRDPMETVQQGRRKRNQMTPDFSRQSHDKKNKLQDRTRLRKAQSMMSRRNPFPLCP | not soluble |
| MKPICIIPARSGSKGLPDKNMLFLSGKPMIFHTIDAAIESGMFDKKDIFVSTDSELYREICLERGISVVMRKPELSTDQATSYDMLKDFLSDYEDNQEFVLLQVTSPLRKSWHIKEAMEYYSSHDVDNVVSFSEVEKHPSLFTTLSDEGYAIDMVGADKGYRRQDLQPLYYPNGAIFISNKETYLREKSFFTSRTYAYQMAKEFSLDVDTRDDFIHVIGHLFFDYAIREKENKVFYKEGYSRLFNREASKIILGDSKTISTSLESYHNYSQGGVTLATMLENLPNFLTANVTEAFVSIGVNDLITGYSVEEIFSNFQKLYSLLAENKIKMRLTTIAYTLFRETVNNADIEKINQWLTEFCYQNQIPLLDINRFLSKDGNLNYHLTSDGLHFTQEANDLLQSQYQLFVDEVKTLLEHHHHHH | soluble |
| MAKRFTLKDAEELYLVPHWSGGFFRVGEKGDLEVTPLGPKGPAASLLEIVEALRDEGRPLPLVLRFPQILEARVRDLNEAFLEAMAKYGYQGTYRGVYPVKVNQRRLVLETVARAGRPYHLGLEAGSKPELALILAQDLSEEALITTNGFKDDDFVRLALMGRKLGRNVVITLEKFAELFRVLRLSKELGVKPLLGIRYKLKAKGAGQWEASGGENAKFGLTTPEIVRAVEVLQEEGLLDALVMLHAHIGSQVTDIRRIKAAVREAAQTYVQLRKLGAPLRYLNLGGGLAVDYDGSKTNFYASANYTLSEYAENLVYVTKEVVEAQGEPHPILVTESGRAITAYHEVLVLQVIDVIAPPGEARPSPPPPEAHPLVKELWESLQSLSPKNFQEVYHDAFADKETLQTLYDLGLVSLRDRALAEEIFYHIARRVQTIAQNLPYVPDELEDLEKLLADKLVCNFSVFQSLPDAWAIHQLFPVVPLSRLLEPPTRRATLVDISCDSDGKMDRFIDLHDVRQTLPVHPVRPGEPYYLGVFLVGAYQDVLGSNHNLFGQVGEAHVRVEEEGFAIERFVGGETAERVIEKMGFTARELMLGVERLVRQSRLSPVEKGAFLERYARELQGYTYLED | soluble |
| MSKEDNNAVVGHQPATKVGGRRIADHGNQRAQNSTNSSDAVREAMDFDLPAKMEKAYPTAAVKQVHEKPTPAIQPAHYNRATGNGQVRNIPQKQNH | not soluble |
| MKIMIIGATGMAGQALVTTALNRGHQVVAVARSAEKLATLPSNPNLTSIVRDAFNLTTTDLSAVDAVVDAFATAPDHAYLHVDLATHLISQLRETTTPRVAFILGAGSLTTGDDAHLFVHDLEQDPHAASFISVPQNQLKELTFLRDVDNVNWFGVSPAADFHPGEAQPALLGTDTLLFNDQQQSGTSAGTMAVAILDELENPKHHQTRFTVADKLEHHHHHH | soluble |
| MMRGGMGNMQKMLKQMQKMQKEMQKAQEELAEKTVEGTAGGGMVTVVANGHKQILEVKIKEEVVDPDDIEMLQDLILAATNDALKKADELANEMMGQFTKGLNIPGLF | not soluble |
| MNVLKEVYATIEKRIEEKPEGSYVAKLTTDDKKTAVNKICEKVGEEAAEVIIAAKDNDKAEIIYESADLIFHTMVLLAKSGITYEELSEEFKKRMKLEHHHHHH | not soluble |
| MTLSRVSEMALSPDGKTAVYAVSFPDVKTNKATRELFTVNLDGSGRKQITDTESNEYAPAWMADGKRIAFMSNEGGSMQLWVMNADGTERRQLSNIEGGITGFLFSPDEKQVLFTKDIKFGKRTKDIYPDLDKATGRIITDLMYKHWDEWVETIPHPFIANATDGMITTGKDIMEGEPYEAPMKPWSGIEDFSWSPDGQNIAYASRKKTGMAYSLSTNSDIYIYNLASGRTHNISEGMMGYDTYPKFSPDGKSIAWISMERDGYESDLKRLFVADLATGKRTHVNPTFDYNVDMIQWAPDSKGIYFLACKEAETNLWEITLKTGKIRQITQGQHDYADFSVRNDVMLAKRHSFELPDDLYRVNLKNGAAQAVTAENKVILDRLTPITCEKRWMKTTDGGNMLTWVVLPPNFDKNKKYPAILYCQGGPQNTVSQFWSFRWNLRLMAEQGYIVIAPNRHGVPGFGQKWNEQISGDYGGQNMRDYLTAVDEMKKEPYVDGDRIGAVGASYGGFSVYWLAGHHDKRFAAFIAHAGIFNLEMQYATTEEMWFANWDIGGPFWEKDNVVAQRTYATSPHKFVQNWDTPILMIHGELDFRILASQAMAAFDAAQLRGVPSEMLIYPDENHWVLQPQNALLFHRTFFGWLDRWLKK | not soluble |
| MKTLHLTFIAKSSKRSHFWLELVWLNNQKKILFCGAGHCKMSPHIIATVTIDDEHHHHHHRSNENYSPSSQDMDSPKPKGRILYCRKCEGHGEKVILKNHSPQCPYILCNCKSCEKLNYKRLKSFNKRNKEKIELAAALNAKRHAPESGSSVDDEEGFSRRSSFCSKTSTPDMDSETRTSSTTPITRSNSTMPTANGLEGRSGSLGHMTVMSYDIWKAKCASERKRLEEERLTKPELFTRSPSPGPMRKRAHTFVAPPTIHTPDIPVVAAKKMSLDEKVKGKFITLPTIPAMRIFVNEEDEDVKPVTQMQLAQPIALTPSPQMSLASTLAQIPMSTPVCMPSMITPTSFLDIPSTSSPMLPFQISTTTSPMLQRQTPILTPQMSPFKPVGVATPQPPALSNLSAGQELSSFILHSVVLQAQQAQQKTAQQLIPTSMPSELESTLSLLRLQQSSLGDLIKLSGIQLPTLPTTQPMLTPQMPTLPMMQKALPTVLPGSFQPFLQPTLFTNPV | not soluble |
| MGSDKIHHHHHHMIYDMSGIYLSSLTGIRNNSSSSSNSLDKEAFLRLLLQELEMQDPLEPMETKDMISQLSQLTSLEQITNLTSAVKDFVEAQTSVSPAQLASLIGKYVVVRNNTVNLVGGQSDSIIFNVDEDAHVVVQILDENGKLVRTEDLGTVQVGVHAWQWDGRDDNGISVEDGSYTYRVYKLTSSGLEEIGGMEGGVVEAVQIKDGKGFVLVNGSLYPVDSILEISQEGDA | not soluble |
